{"source": "paper PMC8532174", "target": "NS3h_2a(JFH1) helicase, wild type (Hepatitis C virus genotype 2a, isolate …, UniProt Q99IB8 1196-1661)", "sequence (Q99IB8 1196-1661)": "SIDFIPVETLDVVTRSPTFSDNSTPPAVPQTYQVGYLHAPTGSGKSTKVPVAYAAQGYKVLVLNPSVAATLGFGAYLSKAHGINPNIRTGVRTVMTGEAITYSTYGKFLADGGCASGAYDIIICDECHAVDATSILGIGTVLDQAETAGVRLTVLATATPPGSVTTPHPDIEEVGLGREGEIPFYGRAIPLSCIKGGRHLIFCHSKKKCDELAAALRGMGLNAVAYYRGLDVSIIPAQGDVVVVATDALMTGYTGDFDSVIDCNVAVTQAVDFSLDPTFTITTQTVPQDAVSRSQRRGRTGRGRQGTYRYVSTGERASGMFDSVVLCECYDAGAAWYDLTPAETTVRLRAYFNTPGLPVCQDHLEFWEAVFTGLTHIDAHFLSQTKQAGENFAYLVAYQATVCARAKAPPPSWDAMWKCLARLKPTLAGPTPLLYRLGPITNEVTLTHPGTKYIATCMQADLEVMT", "assay": "fluorescence polarization"}
{"binder": "TTTTTTTTTTTTTTT (ssDNA)", "note": "[Cy5-dT15]", "values": [{"measurement": "binding result", "value": "binds"}]}
